What was measured:
[1] = test system: CC(=O)OCOc1ccc2c(c1)Oc1cc(OCOC(C)=O)ccc1C21OC(=O)c2ccccc21; assay: purified protein, by the assay type; parameters: fluorogenic ester hydrolysis, fluorescein release, Michaelis-Menten fit of initial rates
Procedure: (§1) The enzyme kinetic activity of LipN was assayed via the hydrolysis of the fluorogenic substrates (Figure 1) in accordance with past kinetic analysis of mycobacterial serine hydrolases.[37],[38],[40],[66],[67] Kinetic assays were run in triplicate on black 96-well plates in a Synergy H1 Hybrid Reader (BioTek). Fluorogenic ester substrates (10 mM in DMSO) were diluted to a starting concentration of 100 μM in PBS containing acetylated BSA (Sigma; 0.1 mg/mL). Eight serial dilutions (1:1; 120 μL into 240 μL total volume) of each substrate were made using PBS–BSA. Fluorogenic substrate dilutions (95 μL) were then transferred to opaque 96-well microplate (Corning, Lowell, MA). Reactions were initiated by quickly adding enzyme (5 μL, 3.0 nM final concentration) to each assay well, mixed, and the fluorescence counts measured every 26–30 s for 4.5 min with a BioTek H1 Synergy multimode plate reader (Biotek Instruments; Winooski, VT) at ambient temperature. The instrument measured relative fluorescence through excitation at λ = 485 nm and emission at λ = 520 nm. The fluorescence change was converted to molar concentrations using a fluorescein standard curve (300–2.3 nM), whose fluorescence was measured simultaneously. The initial rates of the enzyme-catalyzed reactions were measured in triplicate and plotted versus fluorogenic substrate concentration. […] (A) Activation of fluorogenic ester substrates by MmLipN. Each of the substrates is composed of diacyloxymethyl ether fluorescein with varying R-groups. The differing R-groups have been organized into classes and colored based on chemical functionality. All of the substrates were synthesized as described previously.[38],[43] Substrates 6, 10–11, 14–15, 20, 23–30, and 33 were newly synthesized for this characterization of MmLipN. Detailed synthetic characterization is provided in the Supporting Information. (B) Global comparison of the catalytic specificity (kcat/KM) of MmLipN against each of the 33 substrates with ester classes labeled. Catalytic efficiency values (kcat/Km) are given ± SD based on at least three independent kinetic replicates. (C, D) Kinetic activity of MmLipN against high-activity ester substrates 1 (black circles), 7 (blue squares), and 20 (red diamonds) and low-activity ester substrates 12 (green circles), 16 (red squares), 27 (purple diamonds), and 31 (orange squares). Low- and high-activity substrates display classic Michaelis–Menten kinetics with MmLipN and activity above background hydrolysis rates. Traces colored based on ester classification from (A, B). All measurements were completed in at least triplicate and shown ± SD.

[2] = test system: CS(=O)(=O)C1(C(=O)OCOc2ccc3c(c2)Oc2cc(OCOC(=O)C4(S(C)(=O)=O)CC4)ccc2C32OC(=O)c3ccccc32)CC1; assay: purified protein, by the assay type; parameters: fluorogenic ester hydrolysis, fluorescein release, Michaelis-Menten fit of initial rates
Procedure: as §1

[3] = test system: O=C(OCOc1ccc2c(c1)Oc1cc(OCOC(=O)c3ccco3)ccc1C21OC(=O)c2ccccc21)c1ccco1; assay: purified protein, by the assay type; parameters: fluorogenic ester hydrolysis, fluorescein release, Michaelis-Menten fit of initial rates
Procedure: as §1

[4] = test system: O=C1OC2(c3ccc(OCOC(=O)C4(C(F)(F)F)CC4)cc3Oc3cc(OCOC(=O)C4(C(F)(F)F)CC4)ccc32)c2ccccc21; assay: purified protein, by the assay type; parameters: fluorogenic ester hydrolysis, fluorescein release, Michaelis-Menten fit of initial rates
Procedure: as §1

[5] = test system: O=C1OC2(c3ccc(OCOC(=O)C4(O)CC4)cc3Oc3cc(OCOC(=O)C4(O)CC4)ccc32)c2ccccc21; assay: purified protein, by the assay type; parameters: fluorogenic ester hydrolysis, fluorescein release, Michaelis-Menten fit of initial rates
Procedure: as §1

[6] = test system: O=C1OC2(c3ccc(OCOC(=O)C4CCCC4)cc3Oc3cc(OCOC(=O)C4CCCC4)ccc32)c2ccccc21; assay: purified protein, by the assay type; parameters: fluorogenic ester hydrolysis, fluorescein release, Michaelis-Menten fit of initial rates
Procedure: as §1

[7] = test system: CCCC(=O)Oc1ccc([N+](=O)[O-])cc1; assay: purified protein, by the assay type; parameters: p-nitrophenyl ester hydrolysis, absorbance at 412 nm, Michaelis-Menten fit
Description: (A) Classic p-nitrophenyl ester substrates were used as conformation for fluorogenic substrate measurements (Figure 1). (B) Catalytic efficiency comparison of MmLipN against p-nitrophenyl substrates. Catalytic efficiency values (kcat/Km) are given ± SD. (C, D) Kinetic activity of MmLipN against (C) short alkyl ester substrates: p-nitrophenyl acetate (C2) and p-nitrophenyl butyrate (C4) and (D) longer alkyl ester substrates: p-nitrophenyl valerate ([…]), p-nitrophenyl octonoate (C8), and p-nitrophenyl myristate (C14). Data points were fitted to the Michaelis–Menten equation and are shown ± SD.

[8] = target: T1, MmLipN (LipN from M. marinum) (Mycobacterium marinum, UniProt B2HIK1); assay: p-nitrophenol release at […] nm, Michaelis-Menten fit; format: biochemical; details: PBS, acetylated BSA 0.1 mg/mL, acetonitrile, 36 nM enzyme, 25 °C
T1 construct: E. coli LOBSTR (DE3); Ni-NTA
T1 sequence (B2HIK1 1-372): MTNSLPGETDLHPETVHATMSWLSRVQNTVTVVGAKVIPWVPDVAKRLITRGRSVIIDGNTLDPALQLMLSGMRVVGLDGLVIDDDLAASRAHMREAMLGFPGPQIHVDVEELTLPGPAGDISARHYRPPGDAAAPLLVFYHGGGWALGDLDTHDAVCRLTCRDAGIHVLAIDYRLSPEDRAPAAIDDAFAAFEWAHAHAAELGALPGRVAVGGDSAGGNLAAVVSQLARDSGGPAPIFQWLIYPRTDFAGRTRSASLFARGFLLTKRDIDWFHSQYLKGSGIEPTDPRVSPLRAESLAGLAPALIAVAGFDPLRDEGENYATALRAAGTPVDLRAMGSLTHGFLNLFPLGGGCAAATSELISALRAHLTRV

“MmLipN (LipN from M. marinum) (Mycobacterium marinum M)” gave a Km [1] of 0.22 ± 0.12 µM, a kcat [1] of 0.1 ± 0.038 s⁻¹ and a kcat/Km [1] of 460000 ± 150000 M⁻¹ s⁻¹. For the same molecule, the Km [2] was 0.084 ± 0.15 µM, the kcat [2] was 1.4e-05 ± 5e-05 s⁻¹ and the kcat/Km [2] was 170 ± 330 M⁻¹ s⁻¹. The Km [3] was 0.84 ± 0.60 µM, the kcat [3] was 0.003 ± 0.0048 s⁻¹ and the kcat/Km [3] was 3500 ± 3100 M⁻¹ s⁻¹. For the same molecule, the Km [4] was 0.37 ± 0.13 µM, the kcat [4] was 3.7e-05 ± 3e-05 s⁻¹ and the kcat/Km [4] was 98 ± 43 M⁻¹ s⁻¹. The Km [5] was 0.40 ± 0.10 µM, the kcat [5] was 0.0029 ± 0.0016 s⁻¹ and the kcat/Km [5] was 7400 ± 2200 M⁻¹ s⁻¹. It also gave a Km [6] of 33.9 ± 7.71 µM, a kcat [6] of 0.0012 ± 0.0001 s⁻¹ and a kcat/Km [6] of 29 ± 4 M⁻¹ s⁻¹. For the same molecule, the Km [7] was 20 ± 9 µM, the kcat [7] was 190 ± 10 s⁻¹ and the kcat/Km [7] was 9.3e+06 ± 2.1e+06 M⁻¹ s⁻¹.
With CCCCC(=O)Oc1ccc([N+](=O)[O-])cc1 [p-nitrophenyl valerate] the KM [8] was “MmLipN was measured against p-nitrophenyl acetate, p-nitrophenyl butyrate, p-nitrophenyl valerate”.
CC(=O)Oc1ccc([N+](=O)[O-])cc1 [p-nitrophenyl acetate] was tested, and the KM [8] was “The enzymatic activity of MmLipN was measured against p-nitrophenyl acetate”.
In the case of CCCC(=O)Oc1ccc([N+](=O)[O-])cc1 [p-nitrophenyl butyrate], the KM [8] is reported as “LipN showed highest activity against p-nitrophenyl butyrate”.

Source: publication PMC10099132, “Sequence and Structural Motifs Controlling the Broad Substrate Specificity of the Mycobacterial Hormone-Sensitive Lipase LipN” (ACS Omega, 2023)
